Measured values taken from article PMC2702820, “Pyrin Modulates the Intracellular Distribution of PSTPIP1” (PLoS ONE, 2009).
Blank lines part the entries; values can stand above or below the molecule they belong to.

Assays:
[1] = molecular target: PSTPIP1, endogenous, PAPA syndrome patient (human (endogenous in CD14+ cells)) (UniProt O43586); experiment: non-reducing SDS-PAGE with Western blot; lysates of CD14+ cells from controls and a PAPA patient, non-reducing conditions, probed with anti-PSTPIP1
[2] = molecular target: the molecule itself; experiment: as above
[3] = molecular target: the molecule itself; experiment: non-reducing SDS-PAGE; recombinant PSTPIP1 from E. coli run in the absence of added reducing agent, Coomassie stain

stoichiometry N [1]: 2
Molecule: PSTPIP1, endogenous, PAPA syndrome patient (from UniProt O43586 1-416) (natural protein)

B1: PSTPIP1 (proline serine threonine phosphatase-interacting protein 1), endogenous, control individuals (natural protein, human (endogenous in CD14+ cells), UniProt O43586 1-416, looked up)
chain: MMPQLQFKDAFWCRDFTAHTGYEVLLQRLLDGRKMCKDMEELLRQRAQAEERYGKELVQIARKAGGQTEINSLRASFDSLKQQMENVGSSHIQLALTLREELRSLEEFRERQKEQRKKYEAVMDRVQKSKLSLYKKAMESKKTYEQKCRDADDAEQAFERISANGHQKQVEKSQNKARQCKDSATEAERVYRQSIAQLEKVRAEWEQEHRTTCEAFQLQEFDRLTILRNALWVHSNQLSMQCVKDDELYEEVRLTLEGCSIDADIDSFIQAKSTGTEPPAPVPYQNYYDREVTPLTSSPGIQPSCGMIKRFSGLLHGSPKTTSLAASAASTETLTPTPERNEGVYTAIAVQEIQGNPASPAQEYRALYDYTAQNPDELDLSAGDILEVILEGEDGWWTVERNGQRGFVPGSYLEKL
notes: PSTPIP1, human, endogenous in CD14+ cells of control individuals (C1, C2); Major species runs at 95-96 kDa (dimer) on a non-reducing gel; minor monomer at 48 kDa and faint multimers; also called CD2BP1; source: endogenous, lysates of human CD14+ cells enriched from PBMC of control individuals
stoichiometry N [2]: 2

B2: Recombinant human PSTPIP1 protein expressed in E. coli (natural protein, UniProt O43586 1-416, looked up)
chain: B1 chain
notes: PSTPIP1, human, recombinant; monomer runs at 48 kDa; the purification is not described, only that several steps of the recovery need DTT; also called recombinant PSTPIP1; source: E. coli (pHIS8 plasmid), recovered recombinant protein
stoichiometry N [3]: 2
